Measured values from US20190062427A1.

Tests used:
[1] = target: Siglec-9-Fc (R&D Systems, catalog number 1139-SL-050) (human) (UniProt Q9Y336); test: blocking assay by flow cytometry on U937 cells (sialic acid ligands); same table: S9-Fc alone 156, secondary alone 37.6; panel headed 'Isotype does not block'
[2] = target: human Siglec-9 expressed on human cells (human) (UniProt Q9Y336); test: flow cytometry on human primary dendritic cells, PE-conjugated secondary antibody only (no primary), background control
human Siglec-9 expressed on human cells (human), sequence (Q9Y336 18-463): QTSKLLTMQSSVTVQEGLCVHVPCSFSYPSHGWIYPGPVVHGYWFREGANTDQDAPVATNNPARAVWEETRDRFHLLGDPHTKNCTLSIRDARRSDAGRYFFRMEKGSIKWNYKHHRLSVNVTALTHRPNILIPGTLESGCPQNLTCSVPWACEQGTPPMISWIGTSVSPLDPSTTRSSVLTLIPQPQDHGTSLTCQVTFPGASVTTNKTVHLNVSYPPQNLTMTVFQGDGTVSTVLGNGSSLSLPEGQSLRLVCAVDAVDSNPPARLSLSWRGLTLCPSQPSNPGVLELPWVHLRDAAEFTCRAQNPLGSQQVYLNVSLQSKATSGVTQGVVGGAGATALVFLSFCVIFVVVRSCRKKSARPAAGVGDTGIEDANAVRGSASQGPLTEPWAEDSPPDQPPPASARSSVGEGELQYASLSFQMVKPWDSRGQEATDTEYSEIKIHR

[3] = target: human Siglec-9 expressed on human cells (human) (UniProt Q9Y336); test: flow cytometry on human primary monocytes, PE-conjugated secondary antibody only (no primary), background control
[4] = target: human Siglec-9 expressed on human cells (human) (UniProt Q9Y336); test: flow cytometry on human primary macrophages, PE-conjugated secondary antibody only (no primary), background control
[5] = target: human Siglec-9 expressed on human cells (human) (UniProt Q9Y336); test: flow cytometry on human primary monocytes, isotype control, PE secondary
[6] = target: human Siglec-9 expressed on human cells (human) (UniProt Q9Y336); test: flow cytometry on human primary dendritic cells, isotype control, PE secondary
[7] = target: human Siglec-9 expressed on human cells (human) (UniProt Q9Y336); test: cell-based or functional assay
[8] = target: human Siglec-9 expressed on human cells (human) (UniProt Q9Y336); test: flow cytometry on human primary macrophages, isotype control, PE secondary

Siglec-9-Fc (R&D Systems, catalog number 1139-SL-050) (human), sequence (Q9Y336 18-348 limits assumed): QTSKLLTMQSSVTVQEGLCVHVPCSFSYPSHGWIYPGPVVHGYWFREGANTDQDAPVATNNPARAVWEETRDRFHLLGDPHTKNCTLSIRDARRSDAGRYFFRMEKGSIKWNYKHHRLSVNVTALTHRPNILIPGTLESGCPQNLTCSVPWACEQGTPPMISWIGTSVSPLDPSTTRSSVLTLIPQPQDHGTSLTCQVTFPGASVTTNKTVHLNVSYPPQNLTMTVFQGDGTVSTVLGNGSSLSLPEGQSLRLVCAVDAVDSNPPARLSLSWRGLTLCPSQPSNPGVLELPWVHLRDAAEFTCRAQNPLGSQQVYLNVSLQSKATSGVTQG

| Mean : PE-A (Siglec-9-Fc bound to U937 cells in the presence of the mAb) [1] | % Positive [2] [%] | MFI [2] | % Positive [3] [%] | MFI [3] | % Positive [4] [%] | MFI [4] | % Positive [5] [%] | MFI [5] | % Positive [6] [%] | MFI [6] | Percent Siglec-9 Surface Expression, DCs (% Siglec-9) [7] [%] | Percent Siglec-9 Surface Expression, Macrophages (% Siglec-9) [7] [%] | Percent Siglec-9 Surface Expression, Microglia (% Siglec-9) [7] [%] | Percent Siglec-9 Surface Expression, Monocytes (% Siglec-9) [7] [%] | Percent Siglec-9 Surface Expression, THP-1 cells (% Siglec-9) [7] [%] | % Positive [8] [%] | MFI [8] | Substance |
| --- | --- | --- | --- | --- | --- | --- | --- | --- | --- | --- | --- | --- | --- | --- | --- | --- | --- | --- |
| 203 | – | – | – | – | – | – | – | – | – | – | – | – | – | – | – | – | – | Isotype (antibody) |
| – | 7.05 | 90.1 | 2.6 | 105 | 3.58 | 153 | – | – | – | – | – | – | – | – | – | – | – | PE-conjugated secondary antibody |
| – | – | – | – | – | – | – | 2.6 | 104 | 12.3 | 132 | 96.5 | 99.3 | 90.3 | 100 | 100 | 3.01 | 115 | mIgG1 isotype control antibody |
| – | – | – | – | – | – | – | 3.5 | 127 | 8.45 | 121 | 98.6 | 97.8 | 91.2 | 101 | 95.9 | 22.6 | 164 | mIgG2a isotype control antibody |
| – | – | – | – | – | – | – | 4 | 145 | 26.4 | 319 | 93.4 | 97.2 | 91.7 | 98.9 | 98 | 12.6 | 180 | mIgG2b isotype control antibody |
